Results on six molecules are retold here after US20240270828A1 (UAB RESEARCH FOUNDATION, published 2024).

The target of test [1] is T1, SARS-CoV-2 S1 (40591-V08H3, Sino Biological) (SARS-CoV-2, UniProt P0DTC2 16-685).
T1 construct: domain: S1
The experiment in a line: ELISA, hmAb at 10 and 1 ug/ml in duplicate; AUC. A general note: ELISA stands for enzyme-linked immunosorbent assay.

The target of test [2] is T2, SARS-CoV-2 S2 (40590-V08B, Sino Biological) (SARS-CoV-2, UniProt P0DTC2 686-1213).
T2 construct: domain: S2
Nature of the test: ELISA, hmAb at 10 and 1 ug/ml in duplicate; AUC.

Test [3] addresses T3, SARS-CoV-2 S1+S2 (40589-V08B1, Sino Biological) (SARS-CoV-2, UniProt P0DTC2 16-1213). The experiment in a line: ELISA, hmAb at 10 and 1 ug/ml in duplicate; AUC.
The target of test [4] is T1, SARS-CoV-2 S1 (40591-V08H3, Sino …). The experiment in a line: ELISA on coated protein, anti-human IgG-HRP; AUC of the OD.
For test [5], the target named is T2, SARS-CoV-2 S2 (40590-V08B, Sino …). The description is as above.
The target in test [6] is T3, SARS-CoV-2 S1+S2 (40589-V08B1, Sino …). The description is as above.
Test [7] addresses Spike of live SARS-CoV-2 WT virus (SARS-CoV-2, UniProt P0DTC2 14-1273). The experiment in a line: cell-based or functional assay.

B1: 1242D11 (antibody, V domains shown)
VH: QVQLVQSGGGLVQPGGSLRLSCAVSGFTFSSYWMSWVRQAPGKGLEWVANIKQDGSEKYYVDSVKGRFTISRDNAKNSLFLQMNSLRAEDTAVYYCAREAVGYYYDSRGYHYSWYFDLWGRGTLVTVSS
VL: EIVLTQSPGTLSLSPGERATLSCRASQSVSSSYLVWYQQKPGQAPRLLIFGASSRATGIPDRFSGSGSGTDFTLTISSLEPEDFAVYYCQHYGSSPPMYTFGQGTKLEIK
Turning to B1, the “Binding AUC” value in test [1] came out at 2.9; in test [2], 24.4; in test [3], 21.4; in test [4], 2.9; in test [5], 24.4; in test [6] it was 21.4. Besides, the binding result in test [4] was “no binding”.

B2: 1246H7 (antibody, V domains shown)
VH: QVQLQQSGPGLMKPSETLSLTCTVSGGSISSSSYYWGWIRQPPGKGLEWIGSIYYSGATYYNPSLKSRVTISVDTSKNQLSLKLSSVTAADTAVYYCVNRYYDYVWGSWGVDCWGQGTLVTVSS
VL: QAGLTQPRSVSGSPGQSVTISCTGTSSDVGGYNYVSWYQQHPGKAPKLMIYDVNKRPSGVPDRFSGSKSGNTASLTISGLQAEDEADYFCCSYAGSYTYWVFGGGTKLTVL
As to B2, the “Binding AUC” value in test [1] was 1.7; in test [2], 4.8; in test [3], 5; in test [4], 1.7; in test [5], 4.8; in test [6], 5. Besides, the binding result in test [4] is given as “no binding”.

B3: 1242F11 (antibody, V domains shown)
VH: QVQLVQSGGGLVQPGGSLRLSCAASGFTFSSYWMTWVRQAPGKGLEWVANIKQDGREIYYVDSVKGRFTLSRDNAKNSLYLQMNSLRAEDTAVFYCARIRVFVSADSEGYHYYYGLDVWGQGTTVTVSP
VL: not shown
For B3, the “Binding AUC” value in test [4] came out at 1.9; in test [6], 24.1.

B4: 1212C2 (antibody, V domains shown)
VH: QVQLVQSGAEVKKPGASVKVSCKASGYIFTDYFIHWVRQAPGQGLEWMGWINPNSGGTKYAQKFQGRVTMTRDTSISTVYMELSRLRSDDTAVHYCTRDLPLRTLYDSYGFDSWGQGTLVTVSS
VL: LPVLTQPASVSGSPGQSITISCTGTSSDVGSYNLVSWYQQHPGKAPKLMIYDVSKRPSGVSNRFSGSKSGNTASLTISGLQAEDEADYYCCSYAGNSIVFFGGGTKLTVL
With B4, the “Neutralization IC50 (µg/ml), Live Virus WT” value in test [7] was determined as 0.003 µg/mL.

B5: 1235C10 (antibody, V domains shown)
VH: EVQLVESGGGLVQPGRSLRLSCTASGFTFGDHSMSWVRQAPGKGLEWVGFIRSKAYGGTTEYAASVKGRFTISRDDSKSIAYLQMNSLKIEDTAVYYCTRGLTGLDYWGQGMLVTVSS
VL: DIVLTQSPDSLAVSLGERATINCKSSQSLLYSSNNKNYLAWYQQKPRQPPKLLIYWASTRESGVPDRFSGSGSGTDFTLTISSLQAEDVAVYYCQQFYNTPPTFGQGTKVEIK
notes: Recombinant human IgG1
On to B5, for which the “Neutralization IC50 (µg/ml), Live Virus WT” value in test [7] turned out to be 10.4 µg/mL. Moreover, the “Binding AUC” value in test [1] amounted to 0.8; in test [2] it was 26.9; in test [3], 25.2; in test [4], 0.8; in test [5] it was 26.9; in test [6] it was 25.2. Further, the binding result in test [1] is “no binding (tested: 10 ug/ml)”.

B6: 1232D5 (antibody, V domains shown)
VH: EVQLVESGGGVVQPGGSLRLSCAASGFTFSNYGMHWVRQAPSKGLEWVAFIRYDGTNKYYADSVKGRFTISRDNSKNTLYLQINSLRAEDTAVYYCAIIAVAGDVNPDYWGQGTLVTVSS
VL: not shown
Consider B6, for which the “Binding AUC” value in test [1] worked out at 1.1; in test [3], 11.7; in test [4], 1.1; in test [6] it was 11.7. Moreover, the binding result in test [4] is “no binding”.
